Read-outs that look alike come from different tables or passages of the source.
B1: ssDNA X01 (ssDNA)
DNA: GACGCTGCCGAATTCTACCAGTGCCTTGCTAGGACATCTTTGCCCACCTGCAGGTTCACCC
B2: nicked four-way junction (structured_DNA)
DNA 1: B1 DNA
DNA 2: TGGGTGAACCTGCAGGTGGGCAAAGATGTCCATCTGTTGTAATCGTCAAGCTTTATGCCGTT
DNA 3: CATGGAGCTGTCTAGAGGATCCGACTATCGA
DNA 4: GAACGGCATAAAGCTTGACGATTACAACAGAT
DNA 5: ATCGATAGTCGGATCCTCTAGACAGCTCCATGTAGCAAGGCACTGGTAGAATTCGGCAGCGT

Key:
WRNIP1 (short isoform) [1] = biological target: T1, WRNIP1 (short isoform) (Homo sapiens, UniProt Q96S55-2 1-640); assay: EMSA
T1 sequence: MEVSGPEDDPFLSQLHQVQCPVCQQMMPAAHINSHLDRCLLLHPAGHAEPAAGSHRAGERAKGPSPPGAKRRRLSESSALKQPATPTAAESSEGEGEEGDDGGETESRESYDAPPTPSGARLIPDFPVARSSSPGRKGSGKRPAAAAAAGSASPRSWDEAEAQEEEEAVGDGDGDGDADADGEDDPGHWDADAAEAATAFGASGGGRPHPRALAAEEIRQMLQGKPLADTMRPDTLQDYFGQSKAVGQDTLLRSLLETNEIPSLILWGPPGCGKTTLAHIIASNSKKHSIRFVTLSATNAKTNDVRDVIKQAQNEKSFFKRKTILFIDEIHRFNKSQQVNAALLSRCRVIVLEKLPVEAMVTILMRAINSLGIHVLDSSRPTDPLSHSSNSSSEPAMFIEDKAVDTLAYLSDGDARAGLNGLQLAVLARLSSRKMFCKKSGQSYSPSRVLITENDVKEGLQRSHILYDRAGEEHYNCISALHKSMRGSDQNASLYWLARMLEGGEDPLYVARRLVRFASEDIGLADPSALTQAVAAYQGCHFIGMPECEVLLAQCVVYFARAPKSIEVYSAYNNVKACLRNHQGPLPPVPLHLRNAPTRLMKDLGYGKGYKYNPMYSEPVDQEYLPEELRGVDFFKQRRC

WRNIP1 (short isoform) [2] = biological target: T1, WRNIP1 (short isoform); assay: EMSA; remark: listed apart in the source

| Binder | binding result (WRNIP1 (short isoform) [1]) | binding result (WRNIP1 (short isoform) [2]) |
| --- | --- | --- |
| B1 | no binding |  |
| B2 |  | binds |
